Assay results taken from patent publication US20180291353A1, “MONOFUNCTIONAL ALDEHYDE AND ALCOHOL DEHYDROGENASES FOR PRODUCTION OF FUELS AND COMMODITY CHEMICALS” (The Regents of the University of California, priority 2015, published 2018).

Columns and labels:
[1] = system: n-butanol biosynthetic pathway; assay: Butanol and ethanol fuel titer in E. coli DH1 expressing the n-butanol pathway with AdhE2 variants or homologs (FIG. 2, FIG. 3); assay type: cell-based; conditions: E. coli DH1, compared with WT AdhE2
Source text: The fuel titer of butanol in E. coli cells expressing the biosynthetic pathway shown in FIG. 6A with various particular AdhE2 variants incorporating amino acid substitutions from the AdhE2 superfamily is shown. The x-axis labels indicate the particular AdhE2 variant being expressed in the E. coli, with wild-type AdhE2 also shown for comparison. In each figure, E. coli DH1 was transformed with pT5T33-phaA.HBD-crt and pCDF3-ter-AdhE2 variant as indicated. FIG. 2A illustrates the butanol production for AdhE2 variants #76930 to #76978. FIG. 2B illustrates the butanol production for AdhE2 variants #76979 to #77025, and also includes WT AdhE2 (GI 499193180). AdhE2 and variants thereof shown in FIG. 2A and FIG. 2B include SEQ ID NOs: 60-154. […]
. […] Samples were quantified after 3 d of cell culture.
Samples (2 ml) were removed from cell culture and cleared of biomass by centrifugation at 20,817 g for 2 min using an Eppendorf 5417R centrifuge. […] These samples were then analyzed on a Trace GC Ultra (Thermo Scientific) using an HP-5MS column (0.25 mm×30 m, 0.25 μM film thickness, J & W Scientific). The oven program was as follows: 75° C. for 3 min, ramp to 300° C. at 45° C. min^−1, 300° C. for 1 min. n-Butanol was quantified by flame ionization detection (FID) (flow: 350 ml min^−1 air, 35 ml min^−1 H2 and 30 ml min^−1 helium). […]

[2] = system: butanol production pathway; assay: Butanol and ethanol production in E. coli MC1.24 (quintuple KO) with bifunctional or monofunctional dehydrogenases (FIG. 5); assay type: cell-based; conditions: E. coli MC1.24, FIG. 5
Source text: FIG. 5 illustrates genetically engineered improvement of a butanol production pathway composed of monofunctional aldehyde and alcohol dehydrogenases. The fuel titer of either butanol or ethanol in E. coli cells expressing the biosynthetic pathway shown in FIG. 6A with various particular alcohol and/or aldehyde dehydrogenases is shown. Specifically, E. coli MC1.24 (quintuple KO) was transformed with pT533-phaA.HBD, pBBR2-aceE.F.lpd and 1: pCWO.trc-ter-adhE2, 2: pCDF3-aldh16, 3: pCWori-ter-aldh16.CaADH, or 4: pCWO.trc-ter-aldh16.CaADH as indicated.
. The cultures were grown at 37° C. in a rotary shaker (200 r.p.m.) and induced with IPTG (1.0 mM) at OD600=0.35-0.45. At this time, the growth temperature was reduced to 30° C., and the culture flasks were sealed with Parafilm M (Pechiney Plastic Packaging) to prevent product evaporation for aerobic cultures. Anaerobic cultures were sealed and the headspace was sparged with argon for 5 minutes immediately follow induction. Aerobic cultures were unsealed for 10 to 30 min every 24 h then resealed with Parafilm M, and additional glucose (1% (w/v)) was added 1 day post-induction. Samples were quantified after 3 d of cell culture.
Samples (2 ml) were removed from cell culture and cleared of biomass by centrifugation at 20,817 g for 2 min using an Eppendorf 5417R centrifuge. The supernatant or cleared medium sample was then mixed in a 9:1 ratio with an aqueous solution containing the isobutanol internal standard (10,000 mg l^−1). These samples were then analyzed on a Trace GC Ultra (Thermo Scientific) using an HP-5MS column (0.25 mm×30 m, 0.25 μM film thickness, J & W Scientific). The oven program was as follows: 75° C. for 3 min, ramp to 300° C. at 45° C. min^−1, 300° C. for 1 min. n-Butanol was quantified by flame ionization detection (FID) (flow: 350 ml min^−1 air, 35 ml min^−1 H2 and 30 ml min^−1 helium). Samples containing n-butanol levels below 500 mg 1^−1 were requantified after extraction of the cleared medium sample or standard (500 μl) with toluene (500 μl) containing the isobutanol internal standard (100 mg 1^−1) using a Digital Vortex Mixer (Fisher) for 5 min set at 2,000. The organic layer was then quantified using the same GC parameters with a DSQII single-quadrupole mass spectrometer (Thermo Scientific) using single-ion monitoring (m/z 41 and 56) concurrent with full scan mode (m/z 35-80). Samples were quantified relative to a standard curve of 2, 4, 8, 16, 31, 63, 125, 250, 500 mg 1^−1 n-butanol for MS detection or 125, 250, 500, 1,000, 2,000, 4,000, 8,000 mg 1^−1 n-butanol for FID detection. Standard curves were prepared freshly during each run and normalized for injection volume using the internal isobutanol standard (100 or 1,000 mg 1^−1 for MS and FID, respectively). […]

[3] = ALDH7 activity toward substrates; assay type: biochemical; conditions: in words
[4] = system: butanediol and hydroxybutanone production pathway; assay: Screen of secondary alcohol dehydrogenases in the aldh7-adh2 pathway in E. coli (FIG. 15-17); assay type: cell-based; conditions: in words; pathway with aldh7-adh2 and acetoacetyl-CoA reductase
Source text: FIG. 16 illustrates the results of a screen of secondary alcohol dehydrogenases when expressed in the pathway described in FIG. 15. The production titers of 4-hydroxy-2-butanone (hydroxybutanone) and 1,3-butanediol (butanediol) when the illustrated secondary alcohol dehydrogenases are expressed in the pathway illustrated in FIG. 15 are shown. Data are mean±s.d. (n=3).
FIG. 17 illustrates how expression of specific proteins in the pathway described in FIG. 15 can control butanediol:hydroxybutanone ratios through pathway design. The production titers of 4-hydroxy-2-butanone (hydroxybutanone) and 1,3-butanediol (butanediol) when the illustrated proteins are expressed in the pathway illustrated in FIG. 15 are shown. Data are mean±s.d. (n=3).
Unless otherwise described, applicable materials and methods as described in this Example are analogous to those described in Example 1.
At least four SADHs enabled butanediol production of 2 g/L with hydroxybutanone production limited to 250 mg/L or less (FIG. 16). This pathway design appears preferable to enforcing specificity through an ADH that will not accept acetoacetaldehyde; acetoacetaldehyde need not be a dead end product and can still be channeled to butanediol production.

B1: ALDH16: monofunctional aldehyde dehydrogenase specific for C4 substrates (protein, listed as Clostridium beijerinckii)
chain: MNKDTLIPTTKDLKVKTNGENINLKNYKDNSSCFGVFENVENAISSAVHAQKILSLHYTKEQREKIITEIRKAALQNKEVLATMILEETHMGRYEDKILKHELVAKYTPGTEDLTTTAWSGDNGLTVVEMSPYGVIGAITPSTNPTETVICNSIGMIAAGNAVVFNGHPCAKKCVAFAVEMINKAIISCGGPENLVTTIKNPTMESLDAIIKHPSIKLLCGTGGPGMVKTLLNSGKKAIGAGAGNPPVIVDDTADIEKAGRSIIEGCSFDNNLPCIAEKEVFVFENVADDLISNMLKNNAVIINEDQVSKLIDLVLQKNNETQEYFINKKWVGKDAKLFLDEIDVESPSNVKCIICEVNANHPFVMTELMMPILPIVRVKDIDEAIKYAKIAEQNRKHSAYIYSKNIDNLNRFEREIDTTIFVKNAKSFAGVGYEAEGFTTFTIAGSTGEGITSARNFTRQRRCVLAG
[1]
  butanol:ethanol ratio: favorable
[2]
  butanol production: 1 g/L
  ethanol production: 0.5 g/L

B2: ALDH7: monofunctional aldehyde dehydrogenase (protein, listed as Clostridium botulinum)
chain: MERNLSVLSQTNDLKITKRTEGDKSNNKESYLGVFKKVENAITKAIYAQKKLSLYYTKEDRERIIKSIRKATLENKEILAKMIVDETHMGRYEDKILKHELVAKYTPGTEDLITTAWSGDQGLTLVEMSPYGVIGAITPSTNPTETVICNSIGMIAAGDSVVFNGHPGAKKCVAFAVDMINKAVIREGGPENLVTTVENPTMESLNVIMKHPYIKLLCGTGGPGLIKTLLNSGKKAIGAGAGNPPVIVDDSADIDKAAKNIIEGCSFDNNLPCIAEKEVFVFENVANDLIQNMIKNNAVLINENQVSKLLDLVLLERKDETLEYAINKKWVGKDAKLFLDKIGIKASDNVRCIICEVDANHPFVMTELMMPILPIVRVKDVDEAIECAKTAEQRKRHSAYMYSKNIDNLNRFEKEIDTTIFVKNAKSFAGVGFGAEGFTTFTIAGPTGEGITSARNFTRQRRCVLAG
[3]
  activity toward substrates including acetoacetyl-CoA and 3-hydroxybutyryl-CoA: displays activity

B3: SADH1: secondary alcohol dehydrogenase from Pichia kudriavzevii (protein, listed as Pichia kudriavzevii)
chain: MFMKGLTYLKPGIVSWQSIPKPVLKKPTDVIGKVVTTTICGSDLHILKGDVPETTALAATTGHGVVLGHEAIIEIESVGDAVKNFSKGDVCIVSCITSCGKCYYCKRNLQSHCTGHMEGTSGWVFGHEIDGTQAEYVRVPCADYGLYKVPEGVAYEKLLMLSDAIPTSYEIGILNGEVKEGDSVAVVGLGPVGLSALLTAINKKPKQLIAIDMDENRLDLAKQLGATHIINSTNMPNEEVAKKVQEISKDLEPGRESGVDVAIECVGVPPTFELCEDLIASGGTIANVGVHGAKVDLKLQELWIKNCKITTGLVSTYSIPDLLNQVADGSLDPSPIITHHFKFDEFEKAYQVFKDAKNTKAMKIILTP
[4]
  butanediol titer: maximum butanediol titer
